The target of data set [1] is T1, CpNDH2 (CpNDH2-WT; MBP-CpNDH2) (Cryptosporidium parvum, UniProt F0X6E5).
T1 construct: gene cgd7_1900; full-length ORF (568 predicted residues), N-terminal MBP fusion from pMAL-c5X, E. coli BL21(DE3), amylose-resin purified
As to the kind of experiment: inhibition of menadione reduction, NADH oxidation at […] nm. In kind it is biochemical.

In data set [2] the test system is COC1=C(OC)C(=O)C(C/C=C(\C)CCC=C(C)C)=C(C)C1=O. As to the kind of experiment: purified protein. To be noted: 400 μM NADH, pH 7.0, 25 °C, 0.1% Triton X-100, intact MBP fusion, positive cooperativity.
The subject of the next data set is CC1=CC(=O)c2ccccc2C1=O. As to the kind of experiment: purified protein. As to conditions: 400 μM NADH, pH 7.0, 25 °C, 0.1% Triton X-100, Michaelis-Menten.
The subject of data set [3] is CC(C)=CCC/C(C)=C/CC/C(C)=C/CC/C(C)=C/CC1=C(C)C(=O)c2ccccc2C1=O. The data set is described as follows: purified protein. As to conditions: 400 μM NADH, pH 7.0, 25 °C, 0.1% Triton X-100, intact MBP fusion, Michaelis-Menten.
The test system of data set [4] is CC(C)N=c1cc2n(-c3ccc(Cl)cc3)c3ccccc3nc-2cc1Nc1ccc(Cl)cc1. As to the kind of experiment: purified protein. As to conditions: 400 μM NADH, pH 7.0, 25 °C, 0.1% Triton X-100, intact MBP fusion, positive cooperativity.

Experimental findings from article doi:10.1101/2025.10.07.680968, “Widespread genomic heterogeneity at the type II NAD(P)H dehydrogenase locus predisposes Cryptosporidium to clofazimine resistance” (bioRxiv, 2025) are described below.

A word on the IC50: it is the concentration needed to halve the response being measured. The term Km denotes the substrate concentration at which the rate is half of its maximum.

T1 sequence (F0X6E5 entry or part of it): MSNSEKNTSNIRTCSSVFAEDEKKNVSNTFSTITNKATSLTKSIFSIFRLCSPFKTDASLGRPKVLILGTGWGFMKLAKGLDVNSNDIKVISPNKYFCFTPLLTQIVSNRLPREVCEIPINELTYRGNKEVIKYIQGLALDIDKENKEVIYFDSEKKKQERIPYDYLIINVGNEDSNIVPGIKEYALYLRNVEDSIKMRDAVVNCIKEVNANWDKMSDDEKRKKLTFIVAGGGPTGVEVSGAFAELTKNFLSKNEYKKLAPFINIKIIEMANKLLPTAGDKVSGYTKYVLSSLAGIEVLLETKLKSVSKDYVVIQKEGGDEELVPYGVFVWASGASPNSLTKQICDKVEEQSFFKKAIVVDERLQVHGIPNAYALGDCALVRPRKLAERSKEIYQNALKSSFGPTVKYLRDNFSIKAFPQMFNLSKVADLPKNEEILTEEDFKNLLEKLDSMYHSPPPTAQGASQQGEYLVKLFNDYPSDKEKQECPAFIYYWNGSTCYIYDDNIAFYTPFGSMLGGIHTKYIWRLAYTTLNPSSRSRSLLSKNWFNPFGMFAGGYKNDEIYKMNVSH

`CC(C)/N=c1\cc2n(-c3ccc(Cl)cc3)c3ccccc3nc-2cc1Nc1ccc(Cl)cc1` [CFZ, clofazimine]: the IC50 in data set [1] was determined as 2.95 µM. This counts as single-digit micromolar.
Turning to “CpNDH2 (CpNDH2-WT; MBP-CpNDH2) (Cryptosporidium parvum)”, the values for the K0.5 in data set [2] and in data set [4] were 7.17 µM and 30.0 µM, respectively. Also, the Km in the data set on CC1=CC(=O)c2ccccc2C1=O worked out at 113.7 µM; in data set [3], 139.3 µM.
